Data as given in patent US20230080534A1, “SEMG2 ANTIBODY AND USE THEREOF” (SHANGHAI BIOTROY BIOTECHNIQUE CO., LTD., priority 2020, published 2023).

Columns and labels:
[1] = system: LOVO human colorectal cancer cells; assay: Tumor cell killing by activated PBMC, caspase-3/7 apoptosis; format: cell-based; conditions: SEMG2-positive, co-culture with activated PBMC 10:1
Experimental: (§1) To test the above hypothesis, the effects of different epitope-specific antibodies on tumor cell killing by activated PBMC were compared. Specifically, A375 human melanoma and LOVO human colorectal cancer cells highly expressing SEMG2 were seeded in 96-well plate. Human peripheral blood mononuclear cells (PBMC; #70025, Stem Cell) were activated with 100 ng/mL of CD3 antibody, 100 ng/mL, of CD28 antibody, and 1.0 ng/mL of IL2 (#317303; #302913; #589102, BioLegend), respectively, and co-cultured with the above tumor cells at a ratio of 10:1 in presence of fluorescent caspase-3/7 substrate (#4440, Essen Bioscience). After 1.0 hours, cells were observed under fluorescence microscope.
(§2) To verify the above hypothesis, tumor cells with high SEMG2 expression (A375, LOVO) and SEMG2-negative tumor cells (DLD1, NCM460 and NCI-H1975) were selected. Different antibodies (irrelevant mouse IgG antibodies, MM02 or MM05 antibodies) were added during the PBMC killing experiments for the tumor cells.
(§3) To verify the effect of the human antibodies on the function of activated PBMC on tumor cell killing, A375 and LOVO cells were co-cultured with activated PBMC, and H88-93, H88-96, or H88-67 antibody was added at the same time, and the apoptosis ratio of tumor cells were detected.

[2] = system: A375 human melanoma cells; assay: as above; format: cell-based; conditions: A375, SEMG2-positive, co-culture with activated PBMC 10:1
Experimental: as §1, §2, §3

[3] = system: human malignant melanoma A375 cells; assay: Xenograft model of PBMC-HIS model in human malignant melanoma A375 cells; format: in vivo, mouse; conditions: NPSG mice with PBMC and A375, 5 mg/kg intraperitoneally three times a week
Experimental: 30 male NPSG mouse models aged 6-8 week were weighed. A375 cells (with confirmed endogenous expression of SEMG2) were cultured in vitro to obtain 1.8×10^8 cells. After 30 mice were inoculated with PBMC, A375 tumor cells were inoculated on the 3rd day. After that, the proportion of hCD45+ cells in mouse blood and the body weight were measured once a week. After inoculation, tumor volume was measured once a week, and the proportion of hCD45+ cells in mouse blood was measured when the average tumor volume reached about 40-80 mm^3. Mice were grouped randomly based on tumor volume and the proportion of hCD45+ cells in mouse blood, and the administration was started immediately. The date began the administration was considered day 0. […] After the tumor growth, the body weight and tumor volume were measured 3 times a week, and the relative count of hCD45+ cells in mouse blood was monitored by flow cytometry 3 times a week. When the tumor volume reached the end point, blood was collected and the same indexed were detected, and the experiment was ended. […] Measurement of tumor volume: after inoculation and before grouping, when tumors were visible, the tumor volume of experimental animals was measured once a week. After inoculation and grouping, the tumor volume of animals in the experiment was measured twice a week. The tumor volume was measured by a bidirectional measurement method. […]

DLD1 cells = assay: Tumor cell killing by activated PBMC; format: cell-based, human; conditions: DLD1, SEMG2-negative
Experimental: as §1, §2

NCI-H1975 cells = assay: Tumor cell killing by activated PBMC; format: cell-based, human; conditions: NCI-H1975, SEMG2-negative
Experimental: as §1, §2

NCM460 cells = assay: Tumor cell killing by activated PBMC; format: cell-based, human; conditions: NCM460, SEMG2-negative
Experimental: as §1, §2

[4] = system: SEMG2(497-509) polypeptide and glycine mutation scanning sequence group; assay: ELISA epitope mapping with glycine mutation scanning sequence group; format: binding, human
Description: To further precisely define the exact epitopes (specific to the level of single amino acid) to which blocking antibodies MM02, MM05, MM07, MM08, MM13, MM14 bind, corresponding ELISA analysis method was established. […] Anti-mouse or anti-rabbit secondary antibodies were then used to detect the corresponding bound antibodies. […] Meanwhile, the different amino acids in the SEMG2(497-509) sequence had different degrees of influence on the binding of similar blocking antibodies (MM02, MM05, MM07, MM08, MM13, MM14) after substitution by glycine. […] The results precisely define the epitope amino acids associated with MM02 and similar antibodies (i.e., antibodies that block the binding between SEMG2 and CD27), and the contribution of each amino acid to the binding.

Row | decrease of antibody binding after glycine substitution ([4]; substitution of amino acids at positions 501 and 506) | effect of glycine substitution on antibody binding ([4]; substitution of amino acids at positions 507 and 509) | Molecule | apoptosis tumor cell ratio / killing by activated PBMC [1] | apoptosis tumor cell ratio / killing by activated PBMC [2] | growth of tumor in mice [3] | killing by activated PBMC (DLD1 cells) | killing by activated PBMC (NCI-H1975 cells) | killing by activated PBMC (NCM460 cells)
1 |  |  | MM05: mouse monoclonal antibody against SEMG2(497-509), mIgG1 kappa, VH SEQ ID NO:36, VL SEQ ID NO:43 (antibody, V domains shown, UNSURE (1)..(120) VH; UNSURE (1)..(115) VL) VH: QVQLQQPGAELVRPGASVKLSCEASGYTFTSYWMNWVKQRPGQGLEWIGMIDPSDSETHYNQMFKDKATLTVDKSSSTAYMQLSSLTSEDSAVYYCARYLGGKEGSFDYWGQGTTLTVSS VL: DIVMSQSPSSLAVSAGEKVTMSCKSSQSLLNSRTRKNYLAWYQQKPGQSPKLLIYWASTRESGVPDRFTGSGSGTDFTLTISSVQAEDLAVYYCKQSYSLPWTFGGGTKLEIKRA | significantly increased the killing | significantly increased the killing | significantly inhibited the growth of tumor | no obvious impact | no obvious impact | no obvious impact
2 | more than 70% | did not significantly affect | MM02: mouse monoclonal antibody against SEMG2(497-509), mIgG2b kappa, VH SEQ ID NO:35, VL SEQ ID NO:42 (antibody, V domains shown, UNSURE (1)..(115) VH; UNSURE (1)..(109) VL) VH: QIQLVQSGPEVKKPGETVRISCKASGYTLTTAGIQWVQKMPGKGLKWIGWINTHSGVPEYAEDFKGRFAFFLETSASTAYLQISNLKNEDTATYFCARLGLLGYWGQGTTLTVSS VL: DILLTQSPAILSVSPGERVSFSCRASQSIGTTIHWYQQRTNGSPRLLIKYASESISGIPSRFSGSGSGTDFTLSINSVESEDIADYYCQQSNSWPWTFGGGTKLEIKRA | significantly increased the killing | significantly increased the killing |  | no obvious impact | no obvious impact | no obvious impact
